This is an account of results in patent US20140105905A1 (Amgen, published 2014).

In assay [1] the target is T1, recombinant human Interleukin-8 (human, UniProt P10145 28-99).
T1 construct: also called rhIL-8; IL-8
T1 sequence (looked up): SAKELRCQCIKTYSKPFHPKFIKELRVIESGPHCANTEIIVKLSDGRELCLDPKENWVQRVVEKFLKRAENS
The assay is described as follows: KinExA "Kinetics, Direct" method. From the text: (§1) For measuring the association rate constant using KinExA, the same rhIL-8-coupled beads were used as the probe and the “Kinetics, Direct” method was used. The “Kinetics, Direct” experiments by KinExA are identical to KinExA equilibrium assays with respect to bead column height, antibody capture, antibody concentration and antibody detection. Briefly, the mAb was mixed with an amount of antigen that bound approximately 80% of the mAb in the equilibrium experiments and the free antibody present in the sample was probed repeatedly, pre-equilibrium. […] The volumes and flow rates of the antigen-mAb mixtures and the Cy5-labeled secondary antibody were varied depending upon the mAb tested. Data was analyzed utilizing the KinExA analysis software that comes with the KinExA 3000 instrument. This software graphically represents the decrease in binding signals over time, and fits the collected data points to an exact solution of the kinetic differential equations for binding. From this curve, an optimal solution for the kₒₙ is determined. The koff is indirectly calculated from solutions for the kₒₙ and Kd.
(§2) The on-rate measurement by KinExA is not limited by the mAb concentration used in the experiment. […] The concentration of mAb used for on-rate experiments was the same as those used in equilibrium binding experiments. An amount of IL-8 that bound 80% of the mAb in equilibrium binding experiments was mixed with the mAb. The amount of free mAb left in the mixture was measured in KinExA by flowing 1 ml of the mixture repeatedly through rhIL-8 coupled to NHS-activated Sepharose beads and detected using 1 ml of 2.0 μg/ml of Cy5-labeled goat anti-human IgG Fcγ fragment-specific secondary antibody. The kₒₙ was measured using the KinExA software by the “Kinetic, Direct” method and the 95% confidence intervals are given as kₒₙ range. The koff for the mAb was calculated from the measured kₒₙ and Kd of the respective mAb.

For assay [2], the target named is T1, recombinant human Interleukin-8. The assay is described as follows: calculated from KinExA kon and Kd.
Excerpt: as §1, §2

Assay [3] has the same target. The assay is described as follows: KinExA equilibrium in solution, 36 h, mAb 20 pM. On the procedure: The experiments with KinExA were performed using an automated flow immunoassay system, KinExA 3000 [Ohmura et al., Anal. Chem. 73:3392, 2001] in which rhIL-8-coupled beads served as the solid phase. […] Antigen/antibody complexes were incubated at RT for 36 h to 144 h to allow equilibrium to be reached. The mixture was drawn through the rhIL-8-coupled beads to accumulate unbound antibody. The captured anti-hIL-8 mAb is directly proportional to the remaining free binding sites and was detected using solutions containing Cy5-conjugated anti-human secondary antibody in sample buffer. The concentrations, volumes, and flow rates of the secondary antibody solutions were varied to optimize the signal to noise ratio in each experiment. The bound signals were converted into relative values as a proportion of control in the absence of rhIL-8. The equilibrium dissociation constant (Kd) was obtained from nonlinear regression analysis of the data using a one-site homogeneous binding model contained within the software [Blake et Al., Anal. Biochem. 272:123, 1999; Jones et al., Bioconjug Chem 13:408, 2002]. […]
A proportionate amount of free mAb present in the equilibrium mixture was measured by flowing 0.25 ml to 3 ml of the sample on rhIL-8 coupled to CNBr-activated Sepharose beads and detected using 1.0 ml of 1.7 μg/ml of Cy5-labeled goat anti-human IgG Fcγ fragment-specific secondary antibody. […]
On the technique in general: A kinetic exclusion assay measures how much of one partner remains free in solution.

The target in assay [4] is T2, IL-8 peptide ELRCQCIKTYSK (human).
T2 peptide: ELRCQCIKTYSK
Description: overlapping IL-8 peptides on a membrane; column "Recognized epitope". As for the experimental part:
Briefly, overlapping IL-8 peptides, which were each two amino acids c-terminal to the previous peptide (as shown in FIG. 8) were prepared and attached to a membrane. Antibodies were then added and allowed to bind to the peptides.

The target in assay [5] is T1, recombinant human Interleukin-8. The assay is described as follows: not named in this sentence (summary of the filing's own affinity results).
The target is the same in assay [6]. Description: KinExA equilibrium, optimized, n-curve analysis, mAb 0.68, 2.0 and 13.7 pM. From the text:
The equilibrium dissociation constant (Kd) was obtained from nonlinear regression analysis of the data using a one-site homogeneous binding model contained within the software [Blake et Al., Anal. Biochem. 272:123, 1999; Jones et al., Bioconjug Chem 13:408, 2002]. The software calculates the Kd and determines the 95% confidence interval by fitting the data points to a theoretical Kd curve. The 95% confidence interval is given as Kd low and Kd high.
A proportionate amount of free mAb present in the equilibrium mixture was measured in KinExA under optimized conditions. For example, for the mixtures containing the low concentration of mAb, 18-36 ml of the sample was flown through rhIL-8 coupled to NHS-activated Sepharose beads and detected using 1-2 ml of 2.0 μg/ml of Cy5-labeled goat anti-human IgG Fcγ fragment-specific secondary antibody. The Kd was calculated using KinExA software by using the “n-curve analysis” selection.

Assay [7] shares this target. Description: KinExA equilibrium, low mAb concentration experiments analyzed in single curves. On the procedure:
Antigen/antibody complexes were incubated at RT for 36 h to 144 h to allow equilibrium to be reached. The mixture was drawn through the rhIL-8-coupled beads to accumulate unbound antibody. The captured anti-hIL-8 mAb is directly proportional to the remaining free binding sites and was detected using solutions containing Cy5-conjugated anti-human secondary antibody in sample buffer. The concentrations, volumes, and flow rates of the secondary antibody solutions were varied to optimize the signal to noise ratio in each experiment. The bound signals were converted into relative values as a proportion of control in the absence of rhIL-8. The equilibrium dissociation constant (Kd) was obtained from nonlinear regression analysis of the data using a one-site homogeneous binding model contained within the software [Blake et Al., Anal. Biochem. 272:123, 1999; Jones et al., Bioconjug Chem 13:408, 2002]. […]
A proportionate amount of free mAb present in the equilibrium mixture was measured in KinExA under optimized conditions. For example, for the mixtures containing the low concentration of mAb, 18-36 ml of the sample was flown through rhIL-8 coupled to NHS-activated Sepharose beads and detected using 1-2 ml of 2.0 μg/ml of Cy5-labeled goat anti-human IgG Fcγ fragment-specific secondary antibody. […]

B1: anti-hIL-8 mAb 928 (antibody, human IgG2, V domains shown)
VH: QVQLVESGGGVVQPGRSLRLSCAASGFTFSSYGMLWVRQAPGKGLEWVADISYDGSNKYYADSVKGRFTISRDNSKNTLYLQMNSLRAEDTAVFYCARDRIAVADYWGQGTLVTVSS
VL: EIVLTQSPGTLSLSPGERATLSCRASQSVSSSFLAWYQQKPGQAPRLLIYGASSRATGIPDRFSGSGSGTDFILTISRLEPEDFAVYYCQQYDSSFTFGPGTKVDIK
Regarding B1, the kon (commonly a measure of how fast the partners come together) in assay [1] amounted to 6e+06 M⁻¹ s⁻¹. The koff (usually the rate constant with which the complex falls apart) in assay [2] is 3.7e-06 s⁻¹. Moreover, the Kd (usually a measure of binding affinity in units of concentration) in assay [3] was 0.057 pM; in assay [5] it was around 0.06 pM; in assay [6], 0.613 pM; in assay [7], 0.59 pM. The binding result in assay [4] is listed as “binds”.
